Experimental data from paper doi:10.1101/2024.05.03.592409 (bioRxiv, 2024).

B1: HER4 (receptor)
chain: QSVCAGTENKLSSLSDLEQQYRALRKYYENCEVVMGNLEITSIEHNRDLSFLRSVREVTGYVLVALNQFRYLPLENLRIIRGTKLYEDRYALAIFLNYRKDGNFGLQELGLKNLTEILNGGVYVDQNKFLCYADTIHWQDIVRNPWPSNLTLVSTNGSSGCGRCHKSCTGRCWGPTENHCQTLTRTVCAEQCDGRCYGPYVSDCCHRECAGGCSGPKDTDCFACMNFNDSGACVTQCPQTFVYNPTTFQLEHNFNAKYTYGAFCVKKCPHNFVVDSSSCVRACPSSKMEVEENGIKMCKPCTDICPKACDGIGTGSLMSAQTVDSSNIDKFINCTKINGNLIFLVTGIHGDPYNAIEAIDPEKLNVFRTVREITGFLNIQSWPPNMTDFSVFSNLVTIGGRVLYSGLSLLILKQQGITSLQFQSLKEISAGNIYITDNSNLCYYHTINWTTLFSTINQRIVIRDNRKAENCTAEGMVCNHLCSSDGCWGPGPDQCLSCRRFSRGRICIESCNLYDGEFREFENGSICVECDPQCEKMEDGLLTCHGPGPDNCTKCSHFKDGPNCVEKCPDGLQGANSFIFKYADPDRECHPCHPNCTQGCNGPTSHDCIYYPWTGHSTLPQHARTPLIAAGVIGGLFILVIVGLTFAVYVRRKSIKKKRALRRFLETELVEPLTPSGTAPNQAQLRILKETELKRVKVLGSGAFGTVYKGIWVPEGETVKIPVAIKILNETTGPKANVEFMDEALIMASMDHPHLVRLLGVCLSPTIQLVTQLMPHGCLLEYVHEHKDNIGSQLLLNWCVQIAKGMMYLEERRLVHRDLAARNVLVKSPNHVKITDFGLARLLEGDEKEYNADGGKMPIKWMALECIHYRKFTHQSDVWSYGVTIWELMTFGGKPYDGIPTREIPDLLEKGERLPQPPICTIDVYMVMVKCWMIDADSRPKFKELAAEFSRMARDPQRYLVIQGDDRMKLPSPNDSKFFQNLLDEEDLEDMMDAEEYLVPQAFNIPPPIYTSRARIDSNRSEIGHSPPPAYTPMSGNQFVYRDGGFAAEQGVSVPYRAPTSTIPEAPVAQGATAEIFDDSCCNGTLRKPVAPHVQEDSSTQRYSADPTVFAPERSPRGELDEEGYMTPMRDKPKQEYLNPVEENPFVSRRKNGDLQALDNPEYHNASNGPPKAEDEYVNEPLYLNTFANTLGKAEYLKNNILSMPEKAKKAFDNPDYWNHSLPPRSTLQHPDYLQEYSTKYFYKQNGRIRPIVAENPEYLSEFSLKPGTVLPPPPYRHRNTVV

Tests used:
Assay in all cases: PIE-FCCS
[1] = target: GCN4 (membrane protein construct, live-cell dimer control)
HER2 = HER2 (human, UniProt P04626 23-1255)
EGFR = EGFR (human, UniProt P00533 25-1210)
HER3 = HER3 (human, UniProt P21860 20-1342)
Chain of HER3 (P21860 20-1342): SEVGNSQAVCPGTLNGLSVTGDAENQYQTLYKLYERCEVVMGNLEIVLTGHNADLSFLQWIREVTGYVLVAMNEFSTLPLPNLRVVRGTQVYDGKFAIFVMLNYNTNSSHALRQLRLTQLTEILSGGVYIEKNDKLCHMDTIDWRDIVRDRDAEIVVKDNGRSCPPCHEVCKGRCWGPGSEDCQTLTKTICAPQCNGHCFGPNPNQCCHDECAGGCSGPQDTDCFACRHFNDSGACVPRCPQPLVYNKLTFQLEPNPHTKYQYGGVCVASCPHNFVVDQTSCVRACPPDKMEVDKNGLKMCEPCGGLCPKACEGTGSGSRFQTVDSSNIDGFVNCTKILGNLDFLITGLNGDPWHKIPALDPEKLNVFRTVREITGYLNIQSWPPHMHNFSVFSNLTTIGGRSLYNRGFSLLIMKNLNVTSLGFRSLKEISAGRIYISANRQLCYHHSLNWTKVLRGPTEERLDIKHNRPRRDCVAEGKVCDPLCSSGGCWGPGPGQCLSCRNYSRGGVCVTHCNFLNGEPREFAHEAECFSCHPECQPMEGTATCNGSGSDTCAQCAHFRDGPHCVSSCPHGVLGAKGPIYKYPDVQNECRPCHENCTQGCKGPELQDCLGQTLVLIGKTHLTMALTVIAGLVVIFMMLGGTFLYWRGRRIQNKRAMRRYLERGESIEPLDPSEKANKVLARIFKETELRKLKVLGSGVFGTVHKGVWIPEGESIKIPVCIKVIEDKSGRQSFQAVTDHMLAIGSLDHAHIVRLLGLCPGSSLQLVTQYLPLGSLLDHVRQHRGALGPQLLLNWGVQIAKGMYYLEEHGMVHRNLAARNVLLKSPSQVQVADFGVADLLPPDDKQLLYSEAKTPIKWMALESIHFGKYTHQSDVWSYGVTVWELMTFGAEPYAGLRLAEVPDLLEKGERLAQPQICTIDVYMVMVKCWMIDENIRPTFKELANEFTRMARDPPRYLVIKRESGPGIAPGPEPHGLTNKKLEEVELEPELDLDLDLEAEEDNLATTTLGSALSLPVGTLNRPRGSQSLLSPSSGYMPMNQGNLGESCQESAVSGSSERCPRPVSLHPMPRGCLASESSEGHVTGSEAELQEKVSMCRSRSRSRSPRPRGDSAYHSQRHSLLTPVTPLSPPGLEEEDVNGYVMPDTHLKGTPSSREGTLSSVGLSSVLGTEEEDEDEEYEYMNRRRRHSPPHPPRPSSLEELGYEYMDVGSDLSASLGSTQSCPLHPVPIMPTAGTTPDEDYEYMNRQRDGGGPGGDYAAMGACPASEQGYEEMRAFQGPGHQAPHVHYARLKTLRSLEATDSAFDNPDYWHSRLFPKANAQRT

| Molecule | median fc (fraction of cross-correlation) [1] | stoichiometry N [1] | median fc (fraction of cross-correlation) (HER2) | median fc (fraction of cross-correlation) (EGFR) | median fc (fraction of cross-correlation) (HER3) |
| --- | --- | --- | --- | --- | --- |
| GCN4 (membrane protein construct, live-cell dimer control) | 0.15 | 2 |  |  |  |
| B1 |  |  | 0.17 | 0.17 | 0.11 |
